Experiments:
AncSZ = experiment: phosphorylation enrichment, bacterial display (enrichment ratio); higher = better substrate or ligand; peptides without Tyr show the background
EPHB1 = EPHB1 (UniProt P54762); experiment: as above
EPHB2 = EPHB2 (UniProt P29323); experiment: as above
FGFR1 = FGFR1 (UniProt P11362); experiment: as above
FGFR3 = FGFR3 (UniProt P22607); experiment: as above
Fer (mouse) = experiment: as above
Fes = Fes (UniProt P07332); experiment: as above
Fyn = Fyn (UniProt P06241); experiment: as above
Hck = Hck (UniProt P08631); experiment: as above
Jak2 = Jak2 (UniProt O60674); experiment: as above
MERTK = MERTK (UniProt Q12866); experiment: as above
c-Abl (mouse) = experiment: as above
c-Src = experiment: as above
Grb2 SH2 = Grb2 SH2 (UniProt P62993); experiment: SH2 binding enrichment of the phosphorylated peptide, bacterial display (enrichment ratio); higher = better substrate or ligand; peptides without Tyr show the background
SHP2-C SH2 = experiment: as above
c-Src SH2 = experiment: as above
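For SH2 binding enrichment of the phosphorylated peptide, bacterial display in this document: peptide library displayed on the E. coli surface as eCPX fusions, selected cells deep-sequenced, score is each peptide's frequency after selection divided by its frequency in the input.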
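For phosphorylation enrichment, bacterial display in this document: 11-residue human phosphosite peptides and single-mutation variants displayed on the E. coli surface, counted by deep sequencing, each peptide's frequency after selection divided by its frequency in the unselected input library; frequency after pTyr selection over input frequency; kinase dosed for 20-30% of maximal phosphorylation in three min.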

Sequence of Fes (P07332 whole entry, looked up): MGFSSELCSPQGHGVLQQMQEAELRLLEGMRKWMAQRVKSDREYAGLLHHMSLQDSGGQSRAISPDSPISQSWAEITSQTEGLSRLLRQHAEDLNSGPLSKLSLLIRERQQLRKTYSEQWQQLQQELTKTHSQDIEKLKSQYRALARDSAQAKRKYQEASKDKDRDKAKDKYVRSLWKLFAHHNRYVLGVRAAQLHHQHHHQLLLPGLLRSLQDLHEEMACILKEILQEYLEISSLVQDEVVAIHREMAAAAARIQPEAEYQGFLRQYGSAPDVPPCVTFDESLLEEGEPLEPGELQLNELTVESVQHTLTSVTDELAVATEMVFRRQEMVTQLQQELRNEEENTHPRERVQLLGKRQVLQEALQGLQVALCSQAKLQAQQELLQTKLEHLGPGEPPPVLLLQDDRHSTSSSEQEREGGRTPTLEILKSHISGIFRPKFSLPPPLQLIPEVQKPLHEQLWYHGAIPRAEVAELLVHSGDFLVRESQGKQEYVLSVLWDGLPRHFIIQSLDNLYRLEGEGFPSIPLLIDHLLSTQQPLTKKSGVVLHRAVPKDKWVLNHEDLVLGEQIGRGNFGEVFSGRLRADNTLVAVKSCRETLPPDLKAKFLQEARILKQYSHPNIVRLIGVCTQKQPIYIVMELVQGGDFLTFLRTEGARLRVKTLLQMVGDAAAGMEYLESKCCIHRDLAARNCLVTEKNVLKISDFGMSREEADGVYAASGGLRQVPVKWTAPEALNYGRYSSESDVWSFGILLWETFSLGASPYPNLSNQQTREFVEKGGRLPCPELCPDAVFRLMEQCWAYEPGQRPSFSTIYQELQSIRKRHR
Sequence of EPHB1 (P54762 whole entry, looked up): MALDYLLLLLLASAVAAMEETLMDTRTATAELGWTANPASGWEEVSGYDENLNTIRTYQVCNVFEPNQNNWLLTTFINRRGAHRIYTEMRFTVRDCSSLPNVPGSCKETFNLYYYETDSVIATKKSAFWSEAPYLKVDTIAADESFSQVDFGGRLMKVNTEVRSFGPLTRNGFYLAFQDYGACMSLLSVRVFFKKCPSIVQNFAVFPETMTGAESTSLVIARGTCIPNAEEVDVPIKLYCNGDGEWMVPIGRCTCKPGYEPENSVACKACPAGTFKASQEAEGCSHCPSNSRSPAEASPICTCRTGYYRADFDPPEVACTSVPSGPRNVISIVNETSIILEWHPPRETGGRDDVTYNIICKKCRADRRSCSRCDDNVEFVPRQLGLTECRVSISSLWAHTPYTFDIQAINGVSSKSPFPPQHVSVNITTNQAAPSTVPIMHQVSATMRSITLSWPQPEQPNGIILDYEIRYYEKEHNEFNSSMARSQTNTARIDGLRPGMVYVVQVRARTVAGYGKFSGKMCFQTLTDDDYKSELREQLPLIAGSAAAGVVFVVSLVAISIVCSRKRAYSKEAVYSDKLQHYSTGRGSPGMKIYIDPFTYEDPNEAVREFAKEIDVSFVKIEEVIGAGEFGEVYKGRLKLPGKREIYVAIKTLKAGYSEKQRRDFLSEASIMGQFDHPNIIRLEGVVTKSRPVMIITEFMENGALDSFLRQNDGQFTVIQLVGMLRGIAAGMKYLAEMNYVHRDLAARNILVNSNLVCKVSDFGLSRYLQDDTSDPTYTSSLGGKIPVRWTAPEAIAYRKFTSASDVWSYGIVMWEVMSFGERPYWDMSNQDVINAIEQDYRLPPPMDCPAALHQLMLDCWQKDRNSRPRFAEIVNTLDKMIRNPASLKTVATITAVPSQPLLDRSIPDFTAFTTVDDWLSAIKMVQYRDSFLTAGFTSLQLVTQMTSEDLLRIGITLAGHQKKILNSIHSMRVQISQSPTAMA
Sequence of MERTK (Q12866 whole entry, looked up): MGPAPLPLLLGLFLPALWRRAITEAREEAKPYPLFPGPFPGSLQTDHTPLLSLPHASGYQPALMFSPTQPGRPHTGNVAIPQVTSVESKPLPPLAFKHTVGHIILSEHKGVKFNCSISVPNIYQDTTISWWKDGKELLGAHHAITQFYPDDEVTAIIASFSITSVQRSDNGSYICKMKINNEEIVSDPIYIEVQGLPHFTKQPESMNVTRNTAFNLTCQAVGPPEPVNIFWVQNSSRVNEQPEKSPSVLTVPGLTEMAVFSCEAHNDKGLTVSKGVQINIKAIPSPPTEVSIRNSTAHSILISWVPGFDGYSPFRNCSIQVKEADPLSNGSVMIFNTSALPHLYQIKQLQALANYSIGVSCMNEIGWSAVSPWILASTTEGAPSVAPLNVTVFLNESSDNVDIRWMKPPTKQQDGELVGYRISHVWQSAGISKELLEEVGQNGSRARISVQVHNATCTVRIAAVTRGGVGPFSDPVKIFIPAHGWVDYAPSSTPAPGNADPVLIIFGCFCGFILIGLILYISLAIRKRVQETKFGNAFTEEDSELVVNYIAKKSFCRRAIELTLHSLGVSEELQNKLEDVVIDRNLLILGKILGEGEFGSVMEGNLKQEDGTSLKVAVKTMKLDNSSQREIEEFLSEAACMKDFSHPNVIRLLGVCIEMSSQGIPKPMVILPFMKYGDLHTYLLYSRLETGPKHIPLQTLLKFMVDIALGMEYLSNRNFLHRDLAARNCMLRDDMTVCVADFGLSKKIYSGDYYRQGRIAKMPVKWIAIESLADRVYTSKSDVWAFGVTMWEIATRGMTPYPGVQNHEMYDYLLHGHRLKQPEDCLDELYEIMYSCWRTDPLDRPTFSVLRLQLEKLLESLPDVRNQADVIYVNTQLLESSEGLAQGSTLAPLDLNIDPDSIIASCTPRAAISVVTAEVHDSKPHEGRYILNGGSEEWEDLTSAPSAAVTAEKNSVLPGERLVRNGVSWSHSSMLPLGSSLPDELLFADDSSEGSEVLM
Sequence of EPHB2 (P29323 whole entry, looked up): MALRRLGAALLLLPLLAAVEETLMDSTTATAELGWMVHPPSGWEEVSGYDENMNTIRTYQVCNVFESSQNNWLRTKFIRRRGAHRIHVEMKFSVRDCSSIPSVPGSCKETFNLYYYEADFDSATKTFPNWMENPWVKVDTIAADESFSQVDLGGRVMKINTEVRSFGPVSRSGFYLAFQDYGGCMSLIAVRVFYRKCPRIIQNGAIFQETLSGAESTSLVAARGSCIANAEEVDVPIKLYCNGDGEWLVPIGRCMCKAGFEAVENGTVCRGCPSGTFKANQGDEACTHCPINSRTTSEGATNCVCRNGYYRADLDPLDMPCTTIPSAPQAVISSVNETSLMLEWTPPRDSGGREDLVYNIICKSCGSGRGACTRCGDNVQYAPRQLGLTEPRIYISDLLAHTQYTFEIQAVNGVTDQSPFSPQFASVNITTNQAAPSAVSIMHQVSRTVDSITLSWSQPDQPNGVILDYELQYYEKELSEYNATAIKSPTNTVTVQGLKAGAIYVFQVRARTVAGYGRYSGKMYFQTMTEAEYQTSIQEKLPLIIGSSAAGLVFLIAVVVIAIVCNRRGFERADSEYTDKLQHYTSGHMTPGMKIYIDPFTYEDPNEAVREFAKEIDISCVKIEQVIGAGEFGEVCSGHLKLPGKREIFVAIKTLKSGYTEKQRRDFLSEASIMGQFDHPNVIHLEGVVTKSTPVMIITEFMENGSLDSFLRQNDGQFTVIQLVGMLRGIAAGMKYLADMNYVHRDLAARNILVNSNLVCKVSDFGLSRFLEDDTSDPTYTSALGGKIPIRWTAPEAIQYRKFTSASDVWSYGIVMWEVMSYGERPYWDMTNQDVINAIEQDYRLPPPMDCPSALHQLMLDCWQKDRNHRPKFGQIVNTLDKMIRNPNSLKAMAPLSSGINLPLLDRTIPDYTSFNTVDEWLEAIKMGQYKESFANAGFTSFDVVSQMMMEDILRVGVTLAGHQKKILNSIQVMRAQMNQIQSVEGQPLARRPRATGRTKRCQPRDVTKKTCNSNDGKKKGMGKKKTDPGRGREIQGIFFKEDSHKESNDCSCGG
Sequence of Jak2 (O60674 whole entry, looked up): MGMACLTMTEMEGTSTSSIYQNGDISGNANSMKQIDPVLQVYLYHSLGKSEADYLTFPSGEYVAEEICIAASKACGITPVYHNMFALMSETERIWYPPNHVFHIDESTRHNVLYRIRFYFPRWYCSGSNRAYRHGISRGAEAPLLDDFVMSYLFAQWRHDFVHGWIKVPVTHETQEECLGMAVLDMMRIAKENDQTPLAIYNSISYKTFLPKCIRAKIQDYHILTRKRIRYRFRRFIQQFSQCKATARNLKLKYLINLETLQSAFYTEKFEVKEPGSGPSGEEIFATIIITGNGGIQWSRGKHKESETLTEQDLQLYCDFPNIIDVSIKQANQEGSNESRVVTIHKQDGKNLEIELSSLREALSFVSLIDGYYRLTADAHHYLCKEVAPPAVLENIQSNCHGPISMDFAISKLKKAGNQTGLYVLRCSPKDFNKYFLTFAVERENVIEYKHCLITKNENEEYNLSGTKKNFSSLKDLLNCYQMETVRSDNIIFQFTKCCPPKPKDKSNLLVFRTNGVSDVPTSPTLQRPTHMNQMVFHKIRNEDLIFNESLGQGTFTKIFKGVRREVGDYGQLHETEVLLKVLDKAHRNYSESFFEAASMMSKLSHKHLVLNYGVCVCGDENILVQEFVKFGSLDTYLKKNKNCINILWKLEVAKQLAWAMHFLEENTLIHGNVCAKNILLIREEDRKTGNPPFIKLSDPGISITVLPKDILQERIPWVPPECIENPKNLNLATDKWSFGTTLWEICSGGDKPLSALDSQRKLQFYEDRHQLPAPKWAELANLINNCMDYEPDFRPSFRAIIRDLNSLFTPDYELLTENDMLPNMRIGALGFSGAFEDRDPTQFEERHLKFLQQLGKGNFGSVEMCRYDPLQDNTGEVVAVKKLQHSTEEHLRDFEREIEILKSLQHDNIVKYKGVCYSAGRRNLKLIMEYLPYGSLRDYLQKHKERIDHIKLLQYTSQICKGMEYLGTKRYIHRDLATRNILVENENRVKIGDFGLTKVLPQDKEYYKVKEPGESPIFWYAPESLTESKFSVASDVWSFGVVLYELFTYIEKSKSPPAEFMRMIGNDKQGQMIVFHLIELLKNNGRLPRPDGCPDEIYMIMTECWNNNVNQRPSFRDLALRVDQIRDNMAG

Sequence | SH2 binding enrichment (Grb2 SH2) | SH2 binding enrichment (SHP2-C SH2) | SH2 binding enrichment (c-Src SH2) | phosphorylation enrichment (AncSZ) | phosphorylation enrichment (EPHB1) | phosphorylation enrichment (EPHB2) | phosphorylation enrichment (FGFR1) | phosphorylation enrichment (FGFR3) | phosphorylation enrichment (Fer (mouse)) | phosphorylation enrichment (Fes) | phosphorylation enrichment (Fyn) | phosphorylation enrichment (Hck) | phosphorylation enrichment (Jak2) | phosphorylation enrichment (MERTK) | phosphorylation enrichment (c-Abl (mouse)) | phosphorylation enrichment (c-Src)
LPSKDYAEVGR [HP_Y272] | 0.766 | 0.717 | 2.68 | 0.654 | 1.15 | 1.24 | 0.918 | 0.895 | 0.801 | 2.22 | 0.735 | 0.951 | 0.684 | 0.801 | 0.726 | 0.709
LRGEDYGFSVD [PRKCI_Y430] | 0.697 | 0.675 | 0.42 | 1.1 | 0.686 | 0.668 | 0.587 | 0.835 | 0.636 | 1.35 | 0.518 | 0.58 | 1 | 0.623 | 1.12 | 0.512
LSPNMYNSKFW [TARSL2_Y457_L461F] | 0.909 | 0.486 | 0.506 | 1.24 | 1.41 | 1.1 | 1.24 | 0.924 | 0.808 | 1.6 | 0.911 | 1.25 | 1.58 | 1.11 | 1.1 | 1.35
LSPNMYNSKLW [TARSL2_Y457] | 1.09 | 0.763 | 0.51 | 0.879 | 0.632 | 0.753 | 0.75 | 1.13 | 0.5 | 1.19 | 0.622 | 0.831 | 0.561 | 0.603 | 0.726 | 0.573
LSSEMCVKSYT [F5_Y2149_Y2149C] | 0.665 | 0.452 | 0.451 | 1.55 | 1.54 | 0.888 | 1.23 | 1.04 | 1.46 | 1.76 | 1.2 | 0.877 | 2.4 | 1.1 | 1.59 | 1.16
LSSETYVKSFT [F5_Y2149_M2148T_YF] | 0.798 | 0.74 | 0.587 | 0.969 | 0.789 | 1.7 | 0.743 | 0.735 | 0.511 | 1.14 | 0.665 | 0.858 | 1.06 | 0.379 | 0.595 | 0.512
LTKQEYDEAGP [ACTA1_Y364_I359L] | 1.08 | 0.874 | 8.7 | 2.03 | 0.696 | 1.23 | 0.811 | 1.07 | 0.638 | 1.71 | 0.809 | 1.15 | 1.62 | 0.817 | 1.39 | 0.996
LTSVKYLLSAT [GSDMC_Y26_P23S] | 1.03 | 0.801 | 0.679 | 0.703 | 0.465 | 0.566 | 0.482 | 0.541 | 0.406 | 0.635 | 0.418 | 0.466 | 0.818 | 0.376 | 0.437 | 0.393
LVRAFYCERRW [CARD11_Y970_R975W] | 0.953 | 0.681 | 0.49 | 1.05 | 0.671 | 0.623 | 0.575 | 0.697 | 0.59 | 0.745 | 0.649 | 0.634 | 0.857 | 0.64 | 0.695 | 0.489
LVTRSYLLGNS [LMNA_Y646] | 0.836 | 0.633 | 0.444 | 1.37 | 0.931 | 0.68 | 0.841 | 0.939 | 0.85 | 1.52 | 0.823 | 0.708 | 1.27 | 0.794 | 1.14 | 0.854
LYEDCYLLGTS [ASS1_Y87_R86C] | 0.933 | 0.314 | 0.962 | 2.29 | 7.04 | 3.42 | 1.26 | 1.28 | 13.4 | 2.12 | 4.12 | 1.9 | 1.78 | 3.13 | 1.08 | 4.68
MDNQEYKDAFT [BRDT_Y331_K336T_YF] | 0.685 | 0.69 | 0.617 | 1.14 | 0.56 | 0.913 | 0.539 | 0.802 | 0.539 | 1.3 | 0.486 | 0.488 | 1.15 | 0.402 | 0.737 | 0.458
MFRVQYNSSVD [LRFN1_Y458_Q455R_YF] | 0.89 | 0.868 | 0.572 | 0.769 | 0.49 | 0.477 | 0.439 | 0.597 | 0.415 | 0.931 | 0.424 | 0.406 | 0.908 | 0.349 | 0.552 | 0.386
MGCVNYGAYIN [GLB1_Y485_R482C] | 1.44 | 0.606 | 0.569 | 1.32 | 0.793 | 0.83 | 0.469 | 0.851 | 0.571 | 1.37 | 0.578 | 0.572 | 1.56 | 0.483 | 1.39 | 1.08
MHYSNYVSKGS [PDGFRA_Y849_D846Y] | 1.34 | 0.78 | 0.799 | 0.617 | 0.412 | 0.472 | 0.421 | 0.397 | 0.458 | 0.533 | 0.424 | 0.478 | 0.467 | 0.526 | 0.432 | 0.495
MIRSAYALGGL [CPS1_Y590] | 0.715 | 0.689 | 0.46 | 0.54 | 0.358 | 0.435 | 0.392 | 0.473 | 0.32 | 0.534 | 0.41 | 0.386 | 0.597 | 0.449 | 0.417 | 0.384
MLEAPYVDRNS [F10_Y384_V382A] | 0.827 | 0.743 | 0.439 | 0.747 | 0.452 | 0.451 | 0.455 | 0.557 | 0.391 | 0.954 | 0.465 | 0.497 | 0.739 | 0.343 | 0.689 | 0.435
MSRDVYSIDFF [NTRK2_Y702_T704I_YF] | 1.03 | 0.809 | 0.656 | 1.02 | 1.23 | 1.17 | 1.61 | 1.2 | 1.16 | 1.05 | 8.38 | 4.17 | 0.889 | 7.45 | 0.652 | 6.79

More lines, main results first:

SH2 binding enrichment (Grb2 SH2) | SH2 binding enrichment (SHP2-C SH2) | SH2 binding enrichment (c-Src SH2) | Sequence | phosphorylation enrichment (AncSZ) | phosphorylation enrichment (EPHB1) | phosphorylation enrichment (EPHB2) | phosphorylation enrichment (FGFR1) | phosphorylation enrichment (FGFR3) | phosphorylation enrichment (Fer (mouse)) | phosphorylation enrichment (Fes) | phosphorylation enrichment (Fyn) | phosphorylation enrichment (Hck) | phosphorylation enrichment (Jak2) | phosphorylation enrichment (MERTK) | phosphorylation enrichment (c-Abl (mouse)) | phosphorylation enrichment (c-Src)
0.911 | 1.06 | 0.762 | LPKEQYLFTKE [AFG3L2_Y614_YF] | 0.83 | 1.2 | 0.471 | 0.623 | 1.51 | 0.817 | 1.49 | 1.59 | 0.996 | 0.532 | 0.499 | 0.551 | 0.406
1.2 | 1.01 | 1.48 | LPVHFYGHVEH [PYGM_Y204] | 1.68 | 1.33 | 0.889 | 1.54 | 1.66 | 1.9 | 1.74 | 1.58 | 0.935 | 1.63 | 1.07 | 1.26 | 0.803
1.05 | 0.82 | 0.783 | LRSKQYLRNPP [SHC1_Y315_F312S] | 0.376 | 0.426 | 0.359 | 0.277 | 0.37 | 0.413 | 0.619 | 0.452 | 0.4 | 0.355 | 0.364 | 0.575 | 0.399
0.887 | 0.787 | 0.485 | MANYMYKAGPS [MAML2_Y515] | 0.636 | 1.32 | 0.963 | 0.465 | 0.496 | 0.358 | 0.616 | 0.508 | 0.51 | 0.497 | 0.584 | 1.04 | 0.556
1.06 | 0.716 | 0.454 | MARDISRASFF [ALK_Y1278_Y1278S_YF] | 0.626 | 0.463 | 0.467 | 0.41 | 0.473 | 0.392 | 0.682 | 0.443 | 0.384 | 0.53 | 0.432 | 0.545 | 0.396
0.99 | 0.727 | 1.66 | MASTSYDFCRV [BST2_Y6_YF] | 0.944 | 0.576 | 0.613 | 0.572 | 0.829 | 2.25 | 0.919 | 0.486 | 0.473 | 0.796 | 0.709 | 0.622 | 0.525
0.852 | 0.956 | 2.79 | MAYDRYAAICS [OR8H2_Y123_H120Y] | 0.94 | 0.699 | 0.828 | 0.526 | 0.687 | 0.597 | 1.35 | 0.526 | 0.76 | 1.04 | 0.835 | 0.839 | 0.661
1.07 | 0.784 | 0.705 | MCITRYERESQ [PRNP_Y218_Q217R] | 1.03 | 0.429 | 0.528 | 0.433 | 0.541 | 0.488 | 0.813 | 0.404 | 0.469 | 0.769 | 0.457 | 0.466 | 0.404
0.743 | 0.762 | 8.92 | MEIHAYHKLLE [LMNA_Y376_R377H] | 0.974 | 0.475 | 0.588 | 0.474 | 0.746 | 0.422 | 1.25 | 0.445 | 0.552 | 1.03 | 0.403 | 0.691 | 0.441
0.845 | 1.03 | 0.778 | MFFSTYDRDND [FGB_Y408] | 0.849 | 0.541 | 0.578 | 0.673 | 0.601 | 0.501 | 1.05 | 0.426 | 0.511 | 1.03 | 0.408 | 0.84 | 0.589
0.682 | 0.845 | 0.477 | MGSYNYLGFAW [SPTLC2_Y178_R183W] | 1.11 | 3.69 | 1.88 | 2.96 | 2.24 | 0.617 | 0.937 | 0.708 | 1.4 | 3.68 | 3.65 | 0.737 | 1.04
0.797 | 0.525 | 0.405 | MKSIKYMDKEI [CCDC60_Y41] | 0.578 | 0.399 | 0.392 | 0.452 | 0.389 | 0.514 | 0.569 | 0.375 | 0.402 | 0.603 | 0.44 | 0.457 | 0.447
0.946 | 0.392 | 0.391 | MQMEEYRGWVE [BTNL2_Y91] | 1.22 | 0.503 | 0.711 | 0.488 | 0.599 | 0.449 | 1.07 | 0.409 | 0.464 | 1.25 | 0.423 | 0.545 | 0.553
0.701 | 0.512 | 0.286 | MSPPGYKLVTG [GJA1_Y286] | 0.541 | 0.667 | 0.381 | 0.476 | 0.533 | 0.516 | 0.715 | 0.427 | 0.418 | 0.686 | 0.397 | 0.485 | 0.429
0.674 | 0.435 | 0.376 | MTEEQYIKMNR [ARFGEF2_Y797_K794E] | 0.941 | 0.478 | 0.502 | 0.558 | 0.638 | 0.524 | 1.09 | 0.451 | 0.493 | 1.02 | 0.386 | 0.612 | 0.441

From the supplement of paper PMC10065799, “High-throughput profiling of sequence recognition by tyrosine kinases and SH2 domains using bacterial peptide display” (eLife, 2023)
